Data set [1] concerns the molecule itself. Nature of the data set: SEC-MALS; Superdex 200 HR 10/30, 50 mM NaP, 300 mM NaCl, 1 mM DTT, pH 8.0; oligomeric state. (In gel filtration, larger molecules generally elute earlier.)
Data set [2] concerns the molecule itself. Nature of the data set: SEC-MALS; data not shown; single peak not affected by dilution; oligomeric state.

B1: NEDD1 CTD L642Q, GST removed (domain or fragment, human, UniProt Q8NHV4 572-660, looked up)
chain: ADSIGNNRQNAPLTSIQIRFIQNMIQETLDDFREACHRDIVNLQVEMIKQFHMQLNEMHSLLERYSVNEGQVAEIERLREENKRLRAHF
notes: source: E. coli BL21 star (DE3), purified (glutathione resin, thrombin, SEC)
B1: in data set [1], the stoichiometry N (in general, the number of molecules, sites or subunits per partner or assembly) stood at 4.

B2: NEDD1 CTD L642Q/L649Q/L656Q (3xLQ), GST removed (domain or fragment, human, UniProt Q8NHV4 572-660, looked up)
chain: ADSIGNNRQNAPLTSIQIRFIQNMIQETLDDFREACHRDIVNLQVEMIKQFHMQLNEMHSLLERYSVNEGQVAEIERQREENKRQRAHF
notes: also called triple 3×LQ; triple 3xLQ; source: E. coli BL21 star (DE3), purified (glutathione resin, thrombin, SEC)
As for B2, the “stoichiometry N” value in data set [1] stood at 4.

B3: NEDD1 CTD (residues 572–660), GST removed (domain or fragment, human, UniProt Q8NHV4 572-660, looked up)
chain: ADSIGNNRQNAPLTSIQIRFIQNMIQETLDDFREACHRDIVNLQVEMIKQFHMQLNEMHSLLERYSVNEGLVAEIERLREENKRLRAHF
notes: calculated mass 10.5 kDa; also called NEDD1 CTD WT; purified CTD; source: E. coli BL21 star (DE3), purified (glutathione resin, thrombin, SEC)
As for B3, the “stoichiometry N” value in data set [1] was 4.

B4: NEDD1 CTD Y636A/S637A, GST removed (domain or fragment, human, UniProt Q8NHV4 572-660, looked up)
chain: ADSIGNNRQNAPLTSIQIRFIQNMIQETLDDFREACHRDIVNLQVEMIKQFHMQLNEMHSLLERAAVNEGLVAEIERLREENKRLRAHF
notes: also called YS (Y636A/S637A) mutant NEDD1; source: E. coli BL21 star (DE3), purified (glutathione resin, thrombin, SEC)
Turning to B4, the “stoichiometry N” value in data set [1] was determined as 4.

B5: NEDD1 fragment (residues 549–660) (domain or fragment, human, UniProt Q8NHV4 549-660, looked up)
chain: STPNPKIASSVTAGVASSLSEKIADSIGNNRQNAPLTSIQIRFIQNMIQETLDDFREACHRDIVNLQVEMIKQFHMQLNEMHSLLERYSVNEGLVAEIERLREENKRLRAHF
notes: NEDD1, human, residues 549-660; predicted mass 12.8 kDa; also called additional fragment of NEDD1 that included residues 549–660
Regarding B5, the “stoichiometry N” value in data set [2] turned out to be 4.

The values above are taken from PMC2835750, “A Direct Interaction with NEDD1 Regulates γ-Tubulin Recruitment to the Centrosome” (PLoS ONE, 2010).
